Reference: patent US11357833B2, “Use of lysin to restore/augment antibacterial activity in the presence of pulmonary surfactant of antibiotics inhibited thereby” (priority 2015, dated 2022)
In brackets after ≈: the same amount, converted by molar mass.

Key:
[1] = system: methicillin resistant strain (MRSA) MW2; assay: MIC by broth microdilution, with and without bovine-derived surfactant
[2] = system: S. aureus (MRSA strain ATCC BAA-42); assay: Murine model of S. aureus pneumonia; details: 14 days; CF-301 i.v., DAP s.c.; once daily
[3] = system: MRSA, MSSA, and VISA strains of S. aureus; assay: MIC by broth microdilution in increasing surfactant, strains pooled; details: for Antimicrobial activity in the presence of pulmonary (bovine-derived) surfactant: MRSA, MSSA and VISA strains
MSSA NRS-131 = assay: Combination MIC assay in 7.5% surfactant; design: MIC alone / MIC combo: unit not given beside the values; details: for MIC combo: CF-301 and daptomycin in combination; for MIC alone: single agent
MRSA BAA-1720 = assay: Combination MIC assay in 7.5% surfactant; design: MIC alone / MIC combo: unit not given beside the values; details: for MIC combo: CF-301 and daptomycin in combination; for MIC alone: single agent
MRSA NRS-255 = assay: Combination MIC assay in 7.5% surfactant; design: MIC alone / MIC combo: unit not given beside the values; details: for MIC combo: CF-301 and daptomycin in combination; for MIC alone: single agent
MSSA Newman = assay: Combination MIC assay in 7.5% surfactant; design: MIC alone / MIC combo: unit not given beside the values; details: for MIC combo: CF-301 and daptomycin in combination; for MIC alone: single agent
MSSA ATCC 49521 = assay: Combination MIC assay in 7.5% surfactant; design: MIC alone / MIC combo: unit not given beside the values; details: for MIC combo: CF-301 and daptomycin in combination; for MIC alone: single agent
MSSA ATCC 25923 = assay: Combination MIC assay in 7.5% surfactant; design: MIC alone / MIC combo: unit not given beside the values; details: for MIC combo: CF-301 and daptomycin in combination; for MIC alone: single agent
MRSA MW2 [4] = assay: Combination MIC assay in 7.5% surfactant; design: MIC alone / MIC combo: unit not given beside the values; details: for MIC combo: CF-301 and daptomycin in combination; for MIC alone: single agent
MRSA NRS-192 = assay: Combination MIC assay in 7.5% surfactant; design: MIC alone / MIC combo: unit not given beside the values; details: for MIC combo: CF-301 and daptomycin in combination; for MIC alone: single agent
[5] = system: methicillin-susceptible (MSSA) strain ATCC 29213; assay: MIC by broth microdilution, with and without bovine-derived surfactant
MSSA ATCC 29213 = assay: Combination MIC assay in 7.5% surfactant; design: MIC alone / MIC combo: unit not given beside the values; details: for MIC combo: CF-301 and daptomycin in combination; for MIC alone: single agent
MRSA NRS-265 = assay: Combination MIC assay in 7.5% surfactant; design: MIC alone / MIC combo: unit not given beside the values; details: for MIC combo: CF-301 and daptomycin in combination; for MIC alone: single agent
VISA ATCC 700699 = assay: BODIPY-labeled daptomycin binding assay, fluorescence microscopy; details: CF-301 4 μg/ml; DAP^BD 4 μg/ml; 30 min; 7.5% surfactant
MRSA MW2 [6] = assay: as above; details: CF-301 8 μg/ml; BODIPY-DAP 4 μg/ml; 7.5% surfactant
[7] = system: 5 strains of MRSA and 5 strains of MSSA; assay: Combination MIC assay in 7.5% surfactant, strains pooled; details: CF-301 and DAP combined, across strains

With `CCCCCCCCCC(=O)N[C@@H](Cc1c[nH]c2ccccc12)C(=O)N[C@H](CC(N)=O)C(=O)N[C@@H](CC(=O)O)C(=O)N[C@@H]1C(=O)NCC(=O)N[C@@H](CCCN)C(=O)N[C@@H](CC(=O)O)C(=O)N[C@H](C)C(=O)N[C@@H](CC(=O)O)C(=O)NCC(=O)N[C@H](CO)C(=O)N[C@@H]([C@H](C)CC(=O)O)C(=O)N[C@@H](CC(=O)c2ccccc2N)C(=O)O[C@@H]1C` [DAP, daptomycin, reference compound] the MIC ([1]; Staphylococcus aureus, MRSA, 24 h, read-out: Starting MIC (without surfactant)) was 1 µg/mL (≈ 0.617 µM), the “Survival pattern, comparison between treatment groups” value [2] was “same survival pattern as those treated with saline” and the “Antimicrobial activity in the presence of pulmonary (bovine-derived) surfactant” value [3] was “not active”. For the same molecule, the MIC increase ([3]; strain not specified, surfactant concentrations 1.25-15%) was 256 fold, the “Fold reduction (MIC alone vs combo)” value (MSSA NRS-131) was 1024 fold and the MIC combo (MSSA NRS-131) was 0.5. The MIC alone (MSSA NRS-131) was 512, the “Fold reduction (MIC alone vs combo)” value (MRSA BAA-1720) was 1024 fold and the MIC combo (MRSA BAA-1720) was 0.25. For the same molecule, the MIC alone (MRSA BAA-1720) was 256, the “Fold reduction (MIC alone vs combo)” value (MRSA NRS-255) was 1024 fold and the MIC combo (MRSA NRS-255) was 0.5. For the same molecule, the MIC alone (MRSA NRS-255) was 512, the “Fold reduction (MIC alone vs combo)” value (MSSA Newman) was 512 fold and the MIC combo (MSSA Newman) was 0.5. The MIC alone (MSSA Newman) was 256, the “Fold reduction (MIC alone vs combo)” value (MSSA ATCC 49521) was 512 fold and the MIC combo (MSSA ATCC 49521) was 0.5. The MIC alone (MSSA ATCC 49521) was 256, the “Fold reduction (MIC alone vs combo)” value (MSSA ATCC 25923) was 512 fold and the MIC combo (MSSA ATCC 25923) was 0.5. For the same molecule, the MIC alone (MSSA ATCC 25923) was 256, the “Fold reduction (MIC alone vs combo)” value (MRSA MW2 [4]) was 1024 fold and the MIC combo (MRSA MW2 [4]) was 0.25. For the same molecule, the MIC alone (MRSA MW2 [4]) was 256, the “Fold reduction (MIC alone vs combo)” value (MRSA NRS-192) was 512 fold and the MIC combo (MRSA NRS-192) was 0.5. For the same molecule, the MIC alone (MRSA NRS-192) was 256, the MIC ([5]; Staphylococcus aureus, ATCC29213|MSSA, 24 h, read-out: Starting MIC (without surfactant)) was 1 µg/mL (≈ 0.617 µM) and the “Fold reduction (MIC alone vs combo)” value (MSSA ATCC 29213) was 512 fold. For the same molecule, the MIC combo (MSSA ATCC 29213) was 0.5, the MIC alone (MSSA ATCC 29213) was 256 and the “Fold reduction (MIC alone vs combo)” value (MRSA NRS-265) was 1024 fold. The MIC combo (MRSA NRS-265) was 0.25 and the MIC alone (MRSA NRS-265) was 256.

B1: CF-301: Bacteriophage lysin polypeptide, SEQ ID NO: 1 (GenBank accession ZP 03625529), antimicrobial agent against Staphylococcus aureus (protein, listed as Streptococcus suis)
chain: MTTVNEALNNVRAQVGSGVSVGNGECYALASWYERMISPDATVGLGAGVGWVSGAIGDTISAKNIGSSYNWQANGWTVSTSGPFKAGQIVTLGATPGNPYGHVVIVEAVDGDRLTILEQNYGGKRYPVRNYYSAASYRQQVVHYITPPGTVAQSAPNLAGSRSYRETGTMTVTVDALNVRRAPNTSGEIVAVYKRGESFDYDTVIIDVNGYVWVSYIGGSGKRNYVATGATKDGKRFGNAWGTFK
B1 was tested, and the MIC increase ([1]; MRSA strain, surfactant concentrations 1.25-15%) was “up to 2 fold”, the “Starting MIC (without surfactant)” value ([1]; MW2, no surfactant, 24 hours at 35° C.) was 32 µg/mL and the “Antimicrobial activity in the presence of pulmonary (bovine-derived) surfactant” value [3] was “active”. The “Fold reduction (MIC alone vs combo)” value (MSSA NRS-131) was 16 fold, the MIC combo (MSSA NRS-131) was 4 and the MIC alone (MSSA NRS-131) was 64. For the same molecule, the “Fold reduction (MIC alone vs combo)” value (MRSA BAA-1720) was 32 fold, the MIC combo (MRSA BAA-1720) was 2 and the MIC alone (MRSA BAA-1720) was 64. For the same molecule, the “Fold reduction (MIC alone vs combo)” value (MRSA NRS-255) was 16 fold, the MIC combo (MRSA NRS-255) was 2 and the MIC alone (MRSA NRS-255) was 64. For the same molecule, the “DAP^BD binding to VISA” value (VISA ATCC 700699) was “promotes”, the “Fold reduction (MIC alone vs combo)” value (MSSA Newman) was 32 fold and the MIC combo (MSSA Newman) was 4. The MIC alone (MSSA Newman) was 128, the “Fold reduction (MIC alone vs combo)” value (MSSA ATCC 49521) was 32 fold and the MIC combo (MSSA ATCC 49521) was 2. The MIC alone (MSSA ATCC 49521) was 64, the “BODIPY-DAP (DAP^BD) binding to MRSA” value (MRSA MW2 [6]) was “promotes” and the “Fold reduction (MIC alone vs combo)” value (MSSA ATCC 25923) was 32 fold. For the same molecule, the MIC combo (MSSA ATCC 25923) was 4, the MIC alone (MSSA ATCC 25923) was 128 and the “Fold reduction (MIC alone vs combo)” value (MRSA MW2 [4]) was 32 fold. For the same molecule, the MIC combo (MRSA MW2 [4]) was 2, the MIC alone (MRSA MW2 [4]) was 64 and the “Fold reduction (MIC alone vs combo)” value (MRSA NRS-192) was 16 fold. The MIC combo (MRSA NRS-192) was 4, the MIC alone (MRSA NRS-192) was 64 and the “Starting MIC (without surfactant)” value ([5]; ATCC 29213, no surfactant, 24 hours at 35° C.) was 16 µg/mL. The MIC increase ([5]; MSSA strain, surfactant concentrations 1.25-15%) was “up to 2 fold”, the “Growth inhibitory concentration lower in combination than as single agent (MIC reduction)” value [7] was 16-32 fold and the “Fold reduction (MIC alone vs combo)” value (MSSA ATCC 29213) was 32 fold. For the same molecule, the MIC combo (MSSA ATCC 29213) was 4, the MIC alone (MSSA ATCC 29213) was 128 and the “Fold reduction (MIC alone vs combo)” value (MRSA NRS-265) was 16 fold. The MIC combo (MRSA NRS-265) was 4 and the MIC alone (MRSA NRS-265) was 64.
